Data taken from paper PMC7335050, “Characterization of an alternative BAK-binding site for BH3 peptides” (Nature Communications, 2020).

Target: T1, BAKΔTM (human, UniProt Q16611 1-186)
T1 construct: BAK without the transmembrane segment, human, residues 1-186 of GenBank BC004431, in pET29b(+); Named His6-BAKΔTM in the liposome and cytochrome c assays; no tag removal is described; also called His6-BAKΔTM; WT BAKΔTM; source: E. coli BL21, purified (Ni2+-NTA-agarose, Superdex S200)
T1 sequence (looked up): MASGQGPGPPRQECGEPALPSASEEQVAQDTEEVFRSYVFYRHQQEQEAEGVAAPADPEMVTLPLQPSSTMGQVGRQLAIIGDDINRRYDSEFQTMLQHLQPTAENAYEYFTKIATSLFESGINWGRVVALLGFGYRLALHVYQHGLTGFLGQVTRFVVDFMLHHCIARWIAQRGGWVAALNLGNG
Experiment: SPR; BAKΔTM or mutants immobilised on a CM5 chip (Biacore T200; about 4000 RU in the mutant comparisons), BH3 peptides injected at 30 µl per min for 1 min, 25 °C, 10 mM HEPES pH 7.4, 150 mM NaCl, 0.05 mM EDTA, 0.005% polysorbate 20; steady-state analysis, approximate constants
Conditions: both partners purified

- Kd: < 1 µM
Binder: HQAEVQIARKLQCIADQFHRLHVQQH [BMF BH3 peptide]
